Assay [1] has as its system Lsb3. Kind of assay: Deep mutational scanning of Abp1 SH3, Abp1-Lsb3 DHFR-PCA (DMS score). The note with it: Abp1-Lsb3 DHFR-PCA; WT = 0; Fig. S3C-D. Type of assay: cell-based, Saccharomyces cerevisiae. An outline of the steps: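 Each SH3 position is mutated to all possible codons within endogenous ABP1; the pooled strains are crossed to DHFR F[3]-tagged partners, diploids are enriched in NAT/HPH media, and two 72 h complementation selections at 30 °C follow, with Illumina counts of the locus yielding the score.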

For assay [2], the system named is Abp1 (1xFLAG). Kind of assay: Western blot expression level of Abp1 SH3 mutants (Fig. S3C-D). The assay is classed as cell-based, Saccharomyces cerevisiae. How it is done: Precultures of yeast cells expressing baits fused with the DHFR F[1,2]-FLAG were grown overnight at 30 °C with agitation in synthetic complete medium. The next day, cells were expanded in synthetic complete medium to reach their exponential phase (OD600 of around 1.0), pelleted, and frozen at −80 °C. The equivalent of fifty OD600 of cells was resuspended in ice-cold yeast lysis buffer (10 mM Tris-HCl pH 7.4, 150 mM NaCl, 0.5 mM EDTA (Millipore Sigma), 1% Triton X-100 (Millipore Sigma), and one cOmplete Mini Protease Inhibitor Cocktail (Millipore Sigma) per 10 mL) with […] glass beads (Millipore Sigma) and disrupted at 4 °C by 10 cycles of 2 min vortexing and 2 min cooldown. The equivalent of […] of lysed cells was used for the immunoprecipitation of the bait proteins using FLAG-M2 agarose beads (Millipore Sigma). The beads were incubated with the cell lysates for 120 min at 4 °C with a slow rotation, followed by three washes with the yeast lysis buffer.
Protein extracts and affinity-purified baits from yeast and human lysed cells were migrated on 10% polyacrylamide gels. The separated proteins were then transferred to nitrocellulose membranes. Validation of correct protein loading was done with ponceau staining of the membranes. Before the primary antibody incubations, membranes were blocked in 5% milk. Protein signals were detected on an Amersham Imager 600RGB (GE Healthcare) following the incubation of the membranes with the appropriate HRP-conjugated secondary antibodies and the Clarity Western ECL Substrate (Bio-Rad). The antibodies used in this study are M2-HRP (A8592, Sigma, 1/50,000), rabbit anti-FLAG (F7425, Sigma, 1/1000), PAK (SC-881, Santa Cruz, 1/200), p130cas/BCAR1 (SC-860, Santa Cruz, 1/200), actin (Cell Signaling Technology, 1/2000), anti-mouse HRP (Cell Signaling Technology, 1/10,000) and anti-rabbit HRP (Cell Signaling Technology, 1/10,000). The quantification of the WB signals was performed with the Amersham Imager 600 analysis software (GE Healthcare). […]
C, WB comparing expression levels of selected Abp1 SH3 mutants with WT Abp1. An asterisk represents a stop codon, which inhibits translation of the 1xFLAG epitope. D, Quantification of the relative level of expression of Abp1 SH3 mutants by WB as in C, (log2 of Abp1 SH3 mutant/Abp1 WT ratio, WB relative level of expression of 0 for WT Abp1) compared to their DMS scores (Hua2 (left): Pearson’s r = -0.34, p-value = 0.46, Lsb3 […]
(right): Pearson’s r = -0.81, p-value = 0.03). […]
Most […]
interface residues sensitive to mutations, such as Y7, E13, E16, V3 1, D32, D34, L48 and Y53, specifically affect Hua2 PPI. See also Supplementary Table 4.

Results on 1 molecule are retold here after publication PMC7954794, “Protein context shapes the specificity of SH3 domain-mediated interactions in vivo” (Nature Communications, 2021).

B1: WT (protein, UniProt P15891 2-592, looked up)
Actin-binding protein: ALEPIDYTTHSREIDAEYLKIVRGSDPDTTWLIISPNAKKEYEPESTGSSFHDFLQLFDETKVQYGLARVSPPGSDVEKIIIIGWCPDSAPLKTRASFAANFAAVANNLFKGYHVQVTARDEDDLDENELLMKISNAAGARYSIQTSSKQQGKASTPPVKKSFTPSKSPAPVSKKEPVKTPSPAPAAKISSRVNDNNDDDDWNEPELKERDFDQAPLKPNQSSYKPIGKIDLQKVIAEEKAKEDPRLVQKPTAAGSKIDPSSDIANLKNESKLKRDSEFNSFLGTTKPPSMTESSLKNDDDKVIKGFRNEKSPAQLWAERKAKQNSGNAETKAEAPKPEVPEDEPEGEPDVKDLKSKFEGLAASEKEEEEMENKFAPPPKKSEPTIISPKPFSKPQEPVKAEEAEQPKTDYKKIGNPLPGMHIEADNEEEPEENDDDWDDDEDEAAQPPLPSRNVASGAPVQKEEPEQEEIAPSLPSRNSIPAPKQEEAPEQAPEEEIEEEAEEAAPQLPSRSSAAPPPPPRRATPEKKPKENPWATAEYDYDAAEDNELTFVENDKIINIEFVDDDWWLGELEKDGSKGLFPSNYVSLGN
In the case of B1, in assay [1], the “DMS score Lsb3” value turned out to be 0. For the same molecule, the “Ratio Mutant/WT Flag” value in assay [2] (Western blot Flag signal of mutant relative to WT) was found to be 1. The “Flag (2 bands)” value in assay [2] (Western blot, Flag signal, 2 bands) is recorded as 36554.
